Laboratory results from patent publication US20240247080A1, “GLP1/GIP/NPY2 RECEPTOR TRIPLE AGONISTS” (Boehringer Ingelheim International GmbH, priority 2022, published 2024).
Starred links: 1 amine or outer side, 2 acyl side, 3 side chain; linkers in the order of their positions; H or OH if unused. Non-standard residues stand in square brackets, D forms with d. Groups on a side chain read outwards from the residue. No end group written: not given here. *: point of attachment. C20 diacid = O=C(O)CCCCCCCCCCCCCCCCCCC(=O)*; γGlu = O=C(O)[C@H](CCC(=O)[*:2])N[*:1]; εLys = N[C@@H](CCCCN[*:1])C(=O)[*:2]; Aib = CC(C)(N)C(=O)O

Experiments:
Experiment in all cases: cell-based or functional assay
human GIP receptor = biological target: T1, human GIP receptor (human, UniProt P48546 22-466)
T1 sequence (looked up): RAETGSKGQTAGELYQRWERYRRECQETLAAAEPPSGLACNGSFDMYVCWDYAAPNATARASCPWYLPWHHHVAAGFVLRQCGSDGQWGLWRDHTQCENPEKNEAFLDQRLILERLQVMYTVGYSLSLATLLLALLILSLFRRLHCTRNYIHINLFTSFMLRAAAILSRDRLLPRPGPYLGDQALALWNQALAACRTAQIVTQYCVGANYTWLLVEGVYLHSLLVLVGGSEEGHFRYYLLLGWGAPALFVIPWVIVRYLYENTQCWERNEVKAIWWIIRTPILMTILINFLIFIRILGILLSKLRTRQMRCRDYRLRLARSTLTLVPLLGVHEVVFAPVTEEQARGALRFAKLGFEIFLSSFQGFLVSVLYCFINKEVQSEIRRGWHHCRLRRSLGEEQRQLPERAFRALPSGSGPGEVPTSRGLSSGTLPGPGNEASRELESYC

human GLP-1 receptor = human GLP-1 receptor (human, UniProt P43220 24-463)
[1] = biological target: T2, human neuropeptide Y2 receptor (human, UniProt P49146 1-381)
T2 sequence (looked up): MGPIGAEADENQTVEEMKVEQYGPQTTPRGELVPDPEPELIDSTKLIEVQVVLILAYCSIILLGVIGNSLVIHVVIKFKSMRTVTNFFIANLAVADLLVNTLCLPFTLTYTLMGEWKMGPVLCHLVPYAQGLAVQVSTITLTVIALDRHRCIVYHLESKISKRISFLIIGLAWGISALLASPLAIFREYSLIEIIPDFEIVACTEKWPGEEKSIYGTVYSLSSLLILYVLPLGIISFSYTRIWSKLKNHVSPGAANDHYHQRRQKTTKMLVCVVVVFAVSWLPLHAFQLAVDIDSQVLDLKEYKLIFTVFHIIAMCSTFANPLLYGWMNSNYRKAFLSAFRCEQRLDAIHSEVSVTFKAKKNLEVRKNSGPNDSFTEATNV

B1: Compound 96 (peptide)
peptide: YXEGTFTSDYSIXLEKQAQXAFVEWLIKGGPSSGVSLRHYYNWLTRQRY
modifications: Aib at 2, 13, 20; K28 side chain: C20DA-gGlu-gGlu-gGlu-gGlu-gGlu-gGlu-eLys; C-terminal NH2
EC50 CreLuc hGIPR 0.5% hP (human GIP receptor): 0.19 nM | EC50 CreLuc hGIPR 100% hP (human GIP receptor): 1.07 nM | EC50 CreLuc hGLP1R 0.5% hP (human GLP-1 receptor): 0.14 nM | EC50 CreLuc hGLP1R 100% hP (human GLP-1 receptor): 2.12 nM | EC50 CreLuc hNPY2R 0.5% hP [1]: 15.5 nM | EC50 CreLuc hNPY2R 100% hP [1]: 44.8 nM

B2: Compound 172 (peptide)
peptide: YXEGTFTSDLSIXLEKQAQXAFVEWLIKGGPSSGASLRHYYNWLTRQRY
modifications: Aib at 2, 13, 20; K28 side chain: C20DA-gGlu-gGlu-gGlu-gGlu-gGlu-gGlu-eLys; C-terminal NH2
EC50 CreLuc hGIPR 0.5% hP (human GIP receptor): 0.21 nM | EC50 CreLuc hGIPR 100% hP (human GIP receptor): 1.83 nM | EC50 CreLuc hGLP1R 0.5% hP (human GLP-1 receptor): 0.07 nM | EC50 CreLuc hGLP1R 100% hP (human GLP-1 receptor): 2 nM | EC50 CreLuc hNPY2R 0.5% hP [1]: 20.2 nM | EC50 CreLuc hNPY2R 100% hP [1]: 86.1 nM

B3: Compound 93 (peptide)
peptide: YXEGTFTSDYSIXLEKQAQXAFVEWLIKGGPSEYESLRHYYNWLTRQRY
modifications: Aib at 2, 13, 20; K28 side chain: C20DA-gGlu-gGlu-gGlu-gGlu-gGlu-gGlu-eLys; C-terminal NH2
EC50 CreLuc hGIPR 0.5% hP (human GIP receptor): 0.14 nM | EC50 CreLuc hGIPR 100% hP (human GIP receptor): 2.35 nM | EC50 CreLuc hGLP1R 0.5% hP (human GLP-1 receptor): 0.22 nM | EC50 CreLuc hGLP1R 100% hP (human GLP-1 receptor): 8.97 nM | EC50 CreLuc hNPY2R 0.5% hP [1]: 15.3 nM | EC50 CreLuc hNPY2R 100% hP [1]: 85.7 nM

B4: Compound 91 (peptide)
peptide: YXEGTFTSDYSIXLEKQAQXAFVEWLIKGGPSSGATLRHYYNWLTRQRY
modifications: Aib at 2, 13, 20; K28 side chain: C20DA-gGlu-gGlu-gGlu-gGlu-gGlu-gGlu-eLys; C-terminal NH2
EC50 CreLuc hGIPR 0.5% hP (human GIP receptor): 0.21 nM | EC50 CreLuc hGIPR 100% hP (human GIP receptor): 1.72 nM | EC50 CreLuc hGLP1R 0.5% hP (human GLP-1 receptor): 0.17 nM | EC50 CreLuc hGLP1R 100% hP (human GLP-1 receptor): 4.16 nM | EC50 CreLuc hNPY2R 0.5% hP [1]: 16.2 nM | EC50 CreLuc hNPY2R 100% hP [1]: 53.1 nM

B5: Compound 94 (peptide)
peptide: YXEGTFTSDYSIXLEKQAQXAFVEWLIKGGPSSGISLRHYYNWLTRQRY
modifications: Aib at 2, 13, 20; K28 side chain: C20DA-gGlu-gGlu-gGlu-gGlu-gGlu-gGlu-eLys; C-terminal NH2
EC50 CreLuc hGIPR 0.5% hP (human GIP receptor): 0.22 nM | EC50 CreLuc hGIPR 100% hP (human GIP receptor): 1.04 nM | EC50 CreLuc hGLP1R 0.5% hP (human GLP-1 receptor): 0.09 nM | EC50 CreLuc hGLP1R 100% hP (human GLP-1 receptor): 1.98 nM | EC50 CreLuc hNPY2R 0.5% hP [1]: 12.3 nM | EC50 CreLuc hNPY2R 100% hP [1]: 40.2 nM

B6: Compound 89 (peptide)
peptide: YXEGTFTSDYSIXLEKQAQXAFVQWLIKGGPEEGASLRHYYNWLTRQRY
modifications: Aib at 2, 13, 20; K28 side chain: C20DA-gGlu-gGlu-gGlu-gGlu-gGlu-gGlu-eLys; C-terminal NH2
EC50 CreLuc hGIPR 0.5% hP (human GIP receptor): 1.01 nM | EC50 CreLuc hGIPR 100% hP (human GIP receptor): 1.7 nM | EC50 CreLuc hGLP1R 0.5% hP (human GLP-1 receptor): 0.25 nM | EC50 CreLuc hGLP1R 100% hP (human GLP-1 receptor): 8.9 nM | EC50 CreLuc hNPY2R 0.5% hP [1]: 14.8 nM | EC50 CreLuc hNPY2R 100% hP [1]: 42.4 nM

B7: Compound 90 (peptide)
peptide: YXEGTFTSDYSIXLEDQAQXAFVEWLIKGGPSSGASLRHYYNWLTRQRY
modifications: Aib at 2, 13, 20; K28 side chain: C20DA-gGlu-gGlu-gGlu-gGlu-gGlu-gGlu-eLys; C-terminal NH2
EC50 CreLuc hGIPR 0.5% hP (human GIP receptor): 1.03 nM | EC50 CreLuc hGIPR 100% hP (human GIP receptor): 6.75 nM | EC50 CreLuc hGLP1R 0.5% hP (human GLP-1 receptor): 0.3 nM | EC50 CreLuc hGLP1R 100% hP (human GLP-1 receptor): 5.39 nM | EC50 CreLuc hNPY2R 0.5% hP [1]: 18.4 nM | EC50 CreLuc hNPY2R 100% hP [1]: 71.9 nM

Y[Aib]EGTFTSDYSI[Aib]LEKQAQ[Aib]AFVQWLIK([εLys-γGlu-γGlu-γGlu-γGlu-γGlu-C20 diacid])GGPSEPASLRHYYNWLTRQRY-NH2 [Compound 169]
EC50 CreLuc hGIPR 0.5% hP (human GIP receptor): 0.26 nM | EC50 CreLuc hGIPR 100% hP (human GIP receptor): 3.15 nM | EC50 CreLuc hGLP1R 0.5% hP (human GLP-1 receptor): 0.13 nM | EC50 CreLuc hGLP1R 100% hP (human GLP-1 receptor): 7.3 nM | EC50 CreLuc hNPY2R 0.5% hP [1]: 10.3 nM | EC50 CreLuc hNPY2R 100% hP [1]: 50.3 nM

Y[Aib]EGTFTSDYSI[Aib]LEKQAQ[Aib]AFVQWLIK([εLys-γGlu-γGlu-γGlu-Glu-γGlu-γGlu-γGlu-C20 diacid])GGPSSGASLRHYYNWLTRQRY-NH2 [Compound 92]
EC50 CreLuc hGIPR 0.5% hP (human GIP receptor): 0.33 nM | EC50 CreLuc hGIPR 100% hP (human GIP receptor): 1.64 nM | EC50 CreLuc hGLP1R 0.5% hP (human GLP-1 receptor): 0.08 nM | EC50 CreLuc hGLP1R 100% hP (human GLP-1 receptor): 3.16 nM | EC50 CreLuc hNPY2R 0.5% hP [1]: 7.48 nM | EC50 CreLuc hNPY2R 100% hP [1]: 27.9 nM
